Results on three substances are retold here after PMC5587665.

For test [1], the target named is GTP-γS-tubulin-dimer (porcine brain tubulin), P02550;Q767L7. Description: DLS. Conditions: room temperature; 1:1 mixture.
Test [2] shares this target. Description: SEC-MALS. Background: SEC sorts molecules by how far they enter the pores of the column.
Test [3] deals with GTP-γS-tubulin-dimer (porcine brain tubulin) (porcine) (UniProt P02550). Description: SEC; size-exclusion chromatography at 4 °C; tubulin with the GTP analog GTP-γS; 1:1 mixture of each 1 mM (so in the source) CP525 and tubulin-dimer; fractions checked by SDS-PAGE.

In the case of “CP525 (7 x His-tag and human CRMP2 residues 1-525) (from UniProt Q16555) K483A; R485A; R487A”, in test [1], the other: %Polyd (polydispersity of the mixture) is 64.9%, the other: MW-R (of the mixture) is 538 kDa and the other: Rh (hydrodynamic radius of the mixture) is 8.8 nm. In test [2], the other: Molar mass of the mixture, Peak 1 came to 95.9 kDa and the other: Molar mass of the mixture, Peak 2 turned out to be 86.2 kDa.
As to “CP525 (7 x His-tag and human CRMP2 residues 1-525) (from UniProt Q16555 1-525) (domain or fragment)”, the stoichiometry N (CP525:tubulin-dimer) in test [3] is 1.
Regarding “CP525 (7 x His-tag and human CRMP2 residues 1-525) (from UniProt Q16555) T246A; N247A”, in test [1], the other: %Polyd (polydispersity of the mixture) amounted to 52%, the other: MW-R (of the mixture) came to 524 kDa and the other: Rh (hydrodynamic radius of the mixture) is 8.6 nm. Also, in test [2], the other: Molar mass of the mixture, Peak 1 was 214 kDa and the other: Molar mass of the mixture, Peak 2 stood at 113 kDa.
